# Patent publication US20170189545A1
# What was measured:
# [1] = target: GLP-1 receptor; experiment: competition with I-125 exendin-4 (9-39) on RIN-m5F cells expressing GLP-1R, gamma counting
# [2] = target: GLP-1 receptor; experiment: comparison of IC50 values, competition with I-125 exendin-4 (9-39) on RIN-m5F cells
Substance,IC50 [1] [nM],fold better activity than Comparative example 1a (Lys^12-PEG5K-Ex4) [2] [fold],fold better activity than Comparative example 1b (Lys^27-PEG5K-Ex4) [2] [fold],fold better activity than Comparative example 2 (Nter-PEG5K-Ex4) [2] [fold]
exendin-4 (peptide),0.23,,,
C40-PEG5K-Ex4 (linear) (peptide),1.04,6,2,120
